For assay [1], the target named is HER3 (as used in the biolayer interferometry of Example 2) (UniProt P21860 20-643, limits assumed). The assay is described as follows: BLI. A general note: BLI is a label-free optical method that tracks binding on a fibre tip over time.
For assay [2], the target named is T1, recombinant human HER3-Fc chimera protein (R&D Systems) (human, UniProt P21860 20-643).
T1 construct: extracellular domain; Bought from R&D Systems; also called recombinant human HER3 extracellular domain; recombinant HER3; not shown: Fc part of the purchased chimera
Briefly: BLI (Octet Red), antibody on AR2G sensor, HER3-Fc 10-263 nM, 1:1 fit. How it is done: Binding kinetics were measured using an Octet Red instrument (ForteBio, Menlo Park, Calif.), following the manufacturer's protocol. Binding assays were performed in 96-well microtiter plates at 30° C. with sample plate orbital motion agitation at 1000 rpm. All washes, dilutions, and measurements were performed in phosphate buffered saline (PBS), pH 7.4. The IgG and antibody fragments were immobilized on amine-reactive second generation (AR2G) sensors using the manufacturer's protocol at pH 5 followed by quenching with 1 M ethanolamine, pH 8.5. […] Binding was monitored by placing sensors into wells for 5 min, followed by dissociation in PBS for 10 min. KD, kON, and kOFF were determined with ForteBio Data Analysis software v7.1.0.33 through locally fitting the processed data using a 1:1 binding model.

For assay [3], the target named is T1, recombinant human HER3-Fc chimera …. Briefly: BLI, IRDye800CW-labeled antibody.

Consider 5 molecules from patent publication US20200207868A1 (UNIVERSITY OF SASKATCHEWAN, published 2020).

T1 sequence (P21860 20-643, change not shown): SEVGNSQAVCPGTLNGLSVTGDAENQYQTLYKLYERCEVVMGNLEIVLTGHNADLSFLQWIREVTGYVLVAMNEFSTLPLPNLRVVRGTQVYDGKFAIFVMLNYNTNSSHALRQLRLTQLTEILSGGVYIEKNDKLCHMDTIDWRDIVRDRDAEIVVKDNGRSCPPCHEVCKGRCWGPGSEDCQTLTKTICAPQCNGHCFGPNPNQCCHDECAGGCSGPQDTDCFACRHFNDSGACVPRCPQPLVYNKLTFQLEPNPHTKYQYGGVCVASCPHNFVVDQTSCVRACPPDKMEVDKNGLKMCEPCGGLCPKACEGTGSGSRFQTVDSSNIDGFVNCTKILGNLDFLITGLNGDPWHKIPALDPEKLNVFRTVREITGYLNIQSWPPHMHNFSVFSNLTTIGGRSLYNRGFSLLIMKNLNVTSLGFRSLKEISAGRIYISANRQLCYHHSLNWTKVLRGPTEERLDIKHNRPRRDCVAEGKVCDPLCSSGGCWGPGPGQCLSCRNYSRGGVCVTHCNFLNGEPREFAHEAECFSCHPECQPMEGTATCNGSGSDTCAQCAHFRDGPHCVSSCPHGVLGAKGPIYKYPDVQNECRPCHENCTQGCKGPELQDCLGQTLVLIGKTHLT
Chain of HER3 (as used in the biolayer interferometry of Example 2) (P21860 20-643 limits assumed): as the sequence (P21860 20-643, change not shown) above

B1: anti-HER3 scFv (scFv)
scFv: SDIQMTQSPSSLSASVGDRVTITCRASQGISNYLAWYQQKPGKAPKLLIYAASSLQSGVPSRFSGSRSGTDFTLTISSLQPEDFATYYCQQYGWLPLTFGQGTKVEIKGGGGSGGGGSGGGGSEISEVQLVESGGGLVQPGGSLRLSCAASGFTFSSYGMHWVRQAPGKGLEWVAVISYDGSNKYYADSVKGRFTISRDNSKNTLYLQMNSLRAEDTAVYYCARTDPYSLGGYYFDYWGQGTLVTVSS
notes: VL-(GGGGS)3-VH of HER3-3, expressed in E. coli
As to B1, in assay [1], the Kd was determined as 21.6 nM, the koff worked out at 0.00127 s⁻¹ and the on-rate constant (kon) is 60400 M⁻¹ s⁻¹. For the same molecule, in assay [2], the dissociation constant Kd came out at 20 nM, the koff came out at 0.00054 s⁻¹ and the kon is 33000 M⁻¹ s⁻¹.

B2: anti-HER3 scFv labeled with IRDye800CW (scFv)
scFv: SDIQMTQSPSSLSASVGDRVTITCRASQGISNYLAWYQQKPGKAPKLLIYAASSLQSGVPSRFSGSRSGTDFTLTISSLQPEDFATYYCQQYGWLPLTFGQGTKVEIKGGGGSGGGGSGGGGSEISEVQLVESGGGLVQPGGSLRLSCAASGFTFSSYGMHWVRQAPGKGLEWVAVISYDGSNKYYADSVKGRFTISRDNSKNTLYLQMNSLRAEDTAVYYCARTDPYSLGGYYFDYWGQGTLVTVSS
modifications: IRDye800CW-NHS label, 1-2 dye molecules per fragment, sites not stated
notes: m4 labelled with IRDye800CW; also called IRDye800CW-labeled scFv
For the molecule B2, the Kd in assay [3] was 29 nM.

B3: anti-HER3 diabody (other)
chain: SDIQMTQSPSSLSASVGDRVTITCRASQGISNYLAWYQQKPGKAPKLLIYAASSLQSGVPSRFSGSRSGTDFTLTISSLQPEDFATYYCQQYGWLPLTFGQGTKVEIKGGGGSEISEVQLVESGGGLVQPGGSLRLSCAASGFTFSSYGMHWVRQAPGKGLEWVAVISYDGSNKYYADSVKGRFTISRDNSKNTLYLQMNSLRAEDTAVYYCARTDPYSLGGYYFDYWGQGTLVTVSS
notes: VL-GGGGS-VH of HER3-3; bivalent (51.6 kDa), expressed in E. coli
In the case of B3, in assay [2], the Kd is 3 nM, the koff turned out to be 0.00044 s⁻¹ and the kon was 150000 M⁻¹ s⁻¹.

B4: anti-HER3 diabody labeled with IRDye800CW (other)
chain: SDIQMTQSPSSLSASVGDRVTITCRASQGISNYLAWYQQKPGKAPKLLIYAASSLQSGVPSRFSGSRSGTDFTLTISSLQPEDFATYYCQQYGWLPLTFGQGTKVEIKGGGGSEISEVQLVESGGGLVQPGGSLRLSCAASGFTFSSYGMHWVRQAPGKGLEWVAVISYDGSNKYYADSVKGRFTISRDNSKNTLYLQMNSLRAEDTAVYYCARTDPYSLGGYYFDYWGQGTLVTVSS
modifications: IRDye800CW-NHS label, 1-2 dye molecules per fragment, sites not stated
notes: m5 labelled with IRDye800CW; also called IRDye800CW-labeled diabody
For the molecule B4, the Kd in assay [3] was determined as 2.4 nM.

B5: anti-HER3 scFv-CH3 labeled with IRDye800CW (other)
chain: SDIQMTQSPSSLSASVGDRVTITCRASQGISNYLAWYQQKPGKAPKLLIYAASSLQSGVPSRFSGSRSGTDFTLTISSLQPEDFATYYCQQYGWLPLTFGQGTKVEIKGGGGSGGGGSGGGGSEISEVQLVESGGGLVQPGGSLRLSCAASGFTFSSYGMHWVRQAPGKGLEWVAVISYDGSNKYYADSVKGRFTISRDNSKNTLYLQMNSLRAEDTAVYYCARTDPYSLGGYYFDYWGQGTLVTVSSEPKSCDKTHTCPPCPGQPREPQVYTLPPSREEMTKNQVSLTCLVKGFYPSDIAVEWESNGQPENNYKTTPPVLDSDGSFFLYSKLTVDKSRWQQGNVFSCSVMHEALHNHYTQKSLSLSPGK
notes: also called IRDye800CW-labeled scFv-CH3
For the molecule B5, in assay [3], the Kd was 2.1 nM.

The term Kd denotes the concentration at which binding is half-saturated. The koff is a measure of how fast the partners let go of each other. As a reminder, the kon is the rate constant with which the complex forms.
